In the supplement of paper PMC10724198:
± gives the standard deviation of the averaged measurements.

System: Saccharomyces cerevisiae
Experiment: protein stability index of tFT-peptide fusion (C-terminal peptide) (PSI (0-1 scale)); higher = more stable (slower turnover)
Settings: genetic background: wild type; temperature: 30 C
Protocol: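 Multiplexed protein stability (MPS) profiling in S. cerevisiae. Random 12-aa peptides (tFT-X12 library) are fused to the C-terminus of a sfGFP-mCherry tandem fluorescent timer, after mCherry and a GGGS linker. Cells are FACS-sorted into 8 mCherry/sfGFP bins and deep-sequenced. The protein stability index (PSI) is the read-weighted bin average, scaled from 0 (unstable) to 1 (stable). Only peptides with >10 reads are reported; cells were grown at 30 °C in SC-His with glucose.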
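Further: PSI is a weighted mean of sequencing reads over stability bins, variants kept only with over 10 reads, mCherry proximal and sfGFP distal, peptide attached via GGGS linker.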

Row | Sequence | protein stability index
1 | KIKKKKEQTKKK | 0.752 ± 0.15
2 | FFFLCLPSSFAF | 0.614 ± 0.0098
3 | REEMASGGCIIR | 0.6845 ± 0.0039
4 | TSIAKRNGLLPG | 0.719 ± 0.13
5 | ACGSRGGQTERP | 0.7143 ± 0.0066
6 | NIRSRKYMLRKS | 0.744 ± 0.085
7 | GGGGGRGQGWYR | 0.651 ± 0.032
8 | VGIFSLLRCRGE | 0.701 ± 0.035
9 | PSGLRNAHRHRT | 0.719 ± 0.013
10 | PCLLANFFFFPA | 0.653 ± 0.09
11 | PPPRPTVPPGSR | 0.668 ± 0.014
12 | GGFGSCVGHVLG | 0.735 ± 0.077
13 | PPSLEPFSPSPR | 0.639 ± 0.013
14 | LPSPSGSPVPFL | 0.771 ± 0.041
15 | LPSSCVLHMFFP | 0.7111 ± 0.0024
16 | GENPEPRHGRGN | 0.698 ± 0.022
17 | RETGTSVEQVRT | 0.68 ± 0.036
18 | GAVVLSRFRCLP | 0.639 ± 0.035
19 | GKSREKEKESRE | 0.658 ± 0.032
20 | ALLSFVVSSGPA | 0.675 ± 0.026
21 | AKPPLAPSRNAL | 0.656 ± 0.029
22 | SPLPADSHPLPP | 0.667 ± 0.015
23 | ASSRQCSVEART | 0.695 ± 0.0082
24 | LGPPPPPASVCR | 0.647 ± 0.012
25 | PQRTTPPRRHTA | 0.717 ± 0.032

Row | Sequence | protein stability index
26 | RPSPVLRASHPP | 0.638 ± 0.0099
27 | PPPPPPPPPPSS | 0.709 ± 0.13
28 | STTIRTPSGMFR | 0.661 ± 0.0057
29 | DRPACVAHKLFS | 0.677 ± 0.0073
30 | GKADRRKSEHVR | 0.733 ± 0.047
31 | SNKDLELVSTVC | 0.658 ± 0.002
32 | APSVSHAPSRLL | 0.706 ± 0.023
33 | ASTFADASSALV | 0.71 ± 0.014
34 | PPSWLPLLPPPP | 0.688 ± 0.078
35 | AMAELVCVSLRC | 0.536 ± 0.016
36 | PPLRLSHFPRAD | 0.659 ± 0.06
37 | PLRVATTLGYPL | 0.649 ± 0.081
38 | IEKKNKTKKKRI | 0.748 ± 0.13
39 | PRPPPPLPPFPP | 0.6602 ± 0.0011
40 | VVGSVPVSAFWE | 0.746 ± 0.075
41 | PCTRIPPLDSPL | 0.718 ± 0.058
42 | LLPCLSSLPPLP | 0.7 ± 0.064
43 | AGRRASGRVGSG | 0.728 ± 0.018
44 | RCRKVSTISRFK | 0.7053 ± 0.002
45 | PSPTPTMPPPPP | 0.71 ± 0.01
46 | RSDGRWYAGGLG | 0.737 ± 0.018
47 | PSSAPPGSPGHL | 0.701 ± 0.019
48 | FRVFLGHLITRK | 0.727 ± 0.039
49 | SPPAALLPLFLR | 0.676 ± 0.051
50 | STEHAPDLKSER | 0.695 ± 0.077

Row | Sequence | protein stability index
51 | SEYHGRAQKTGP | 0.744 ± 0.034
52 | KFVSQLGQRTRF | 0.745 ± 0.05
53 | KKKKKRTKKNNH | 0.767 ± 0.11
54 | PPDALTHPTPPQ | 0.703 ± 0.013
55 | NCEVYVGLVLAD | 0.597 ± 0.028
56 | RGGGWGRKVSVG | 0.659 ± 0.095
57 | PPPPPPVRSLPL | 0.72 ± 0.088
58 | GLLRGHVFVGRG | 0.692 ± 0.029
59 | SPSLPQLLDPPS | 0.711 ± 0.011
60 | DLSAGPPFLLIR | 0.6717 ± 0.0038
61 | KIKRTNKNIKKS | 0.672 ± 0.017
62 | FMLGYIRPKWGG | 0.714 ± 0.12
63 | AGFCRVFSYDFV | 0.708 ± 0.04
64 | ALMEFLVFSRCG | 0.642 ± 0.074
65 | LSWLSLSSNSRL | 0.798 ± 0.019
66 | PPHHSLSPPLPP | 0.6607 ± 0.0014
67 | PPLPRSPSPPPP | 0.644 ± 0.028
68 | WRVDKREPPGRL | 0.707 ± 0.034
69 | PPPLSCPRPPIT | 0.664 ± 0.031
70 | SSPNPPRELGPY | 0.607 ± 0.055
71 | RLRRCPWLRAWR | 0.7086 ± 0.005
72 | ITIPISGLQVGV | 0.591 ± 0.027
73 | PLAMRVALFSPP | 0.651 ± 0.0089
74 | TECGVRRGLVGR | 0.651 ± 0.025
75 | LPPPPTCYDHPL | 0.676 ± 0.052

Row | Sequence | protein stability index
76 | SNIKEYKSINGR | 0.666 ± 0.02
77 | GFALRESWFIFV | 0.644 ± 0.018
78 | VLSVLGLGFWGG | 0.8042 ± 0.0076
79 | GGLGVAGAGVVC | 0.655 ± 0.042
80 | RQSDPFCCSTHP | 0.7449 ± 0.0023
81 | YSHPCLSCREAH | 0.749 ± 0.057
82 | ATPPPVRPSPIL | 0.677 ± 0.035
83 | RGGGQVLGARVG | 0.634 ± 0.017
84 | YRAHAYPYVPRS | 0.682 ± 0.027
85 | GVNLFEIVRSVT | 0.7169 ± 0.0012
86 | DRWGGRGDYRCI | 0.72 ± 0.019
87 | GKGRIWTGRKGC | 0.68 ± 0.098
88 | KKKKIIKKKNIK | 0.77 ± 0.069
89 | RLPSLTGLELFS | 0.685 ± 0.025
90 | RRPHLLCSPARL | 0.883 ± 0.012
91 | PPPPSPSPLPPS | 0.751 ± 0.015
92 | LGPAPFSPPPPL | 0.738 ± 0.041
93 | GGCGGRGGVVVR | 0.687 ± 0.02
94 | SATWQLPGYFLI | 0.681 ± 0.04
95 | GGGWGSRGVCLG | 0.65 ± 0.11
96 | CSIVGLGACVSW | 0.669 ± 0.0083
97 | WCSRRIDWSSAP | 0.7318 ± 0.002
98 | GKGREGVGEVGK | 0.6753 ± 0.0043
99 | SRARPPLLPFPP | 0.615 ± 0.061
100 | EGRMEAGVEGNS | 0.657 ± 0.053

Row | Sequence | protein stability index
101 | SISSVFCTGRCH | 0.721 ± 0.19
102 | PRLPHPPPPLPL | 0.669 ± 0.079
103 | RLSSLSSPPPAF | 0.693 ± 0.07
104 | GGPIQAGLSFPG | 0.685 ± 0.025
105 | VGSGFGGAGVIG | 0.696 ± 0.045
106 | PPPPPLYLPRFV | 0.675 ± 0.056
107 | HPPLTPLRANLP | 0.74 ± 0.039
108 | TTQEPTPLAQEQ | 0.713 ± 0.024
109 | SKGECYSETDVA | 0.684 ± 0.018
110 | ITIPICTTFHHV | 0.731 ± 0.029
111 | PTSPPPPLPPPS | 0.7066 ± 0.0036
112 | PALSVPPLLPPP | 0.604 ± 0.0071
113 | SPLLFLLPPAAP | 0.692 ± 0.062
114 | RTKTQGKKRRQN | 0.57 ± 0.032
115 | PPPAYTPPLPPP | 0.669 ± 0.0073
116 | SSPPAPHGAHPP | 0.752 ± 0.0099
117 | KKNQKEKATSRK | 0.769 ± 0.043
118 | CSMSGPLIIIAR | 0.58339 ± 0.00021
119 | NGLGKGKTKGEI | 0.625 ± 0.1
120 | CGSWVAVESLEL | 0.679 ± 0.042
121 | ITGPLAPYLGGF | 0.688 ± 0.037
122 | GWFRDCEWGASS | 0.712 ± 0.061
123 | TSGAQSTRLGRE | 0.778 ± 0.11
124 | PPGNPPPRRLTS | 0.695 ± 0.053
125 | PPFPKFPRPRLH | 0.738 ± 0.04

Row | Sequence | protein stability index
126 | CNNRNKRMRKYI | 0.669 ± 0.031
127 | FHFLCLVGSFRG | 0.528 ± 0.037
128 | LRRKSLHFSFPF | 0.618 ± 0.054
129 | LPPLPPPSPFPS | 0.762 ± 0.074
130 | GANLVTGKLTDG | 0.693 ± 0.036
131 | CCLGCFLKHGIV | 0.652 ± 0.035
132 | FLLYSSSAIPEH | 0.759 ± 0.065
133 | GSSGGVWPDLNY | 0.701 ± 0.012
134 | PRDTTIPLVLGF | 0.63756 ± 0.00037
135 | GHEKAGPSIGFL | 0.644 ± 0.027
136 | PLTTTPPTRHTP | 0.6978 ± 0.004
137 | PPSLPRPPAFAP | 0.689 ± 0.023
138 | PSAPRHLIPPPI | 0.715 ± 0.07
139 | PLRVDLTHQQWS | 0.574 ± 0.11
140 | PRPPPPSPIPPL | 0.7265 ± 0.0018
141 | SGFQAPGSVASE | 0.623 ± 0.014
142 | VGVGRAALRWYG | 0.6716 ± 0.0035
143 | EKSPDYVFRWFR | 0.745 ± 0.044
144 | TKTNKALKTSKI | 0.699 ± 0.061
145 | CRPVHVNLPFYF | 0.5884 ± 0.00092
146 | PAPHPPIPHQPP | 0.532 ± 0.023
